{
  "source": "patent US20250171562A1",
  "binders": {"B1": {"name": "CIgG4E2A1(G4S)3 (Fc fusion)", "chain 1": "GPPCPPCPAPEFLGGPSVFLFPPKPKDTLMISRTPEVTCVVVDVSQEDPEVQFNWYVDGVEVHNAKTKPREEQFNSTYRVVSVLTVLHQDWLNGKEYKCKVSNKGLPSSIEKTISKAKGQPREPQVYTLPPCQEEMTKNQVSLWCLVKGFYPSDIAVEWESNGQPENNYKTTPPVLDSDGSFFLYSRLTVDKSRWQEGNVFSCSVMHEALHNHYTQKSLSLSLGKGGGGSGGGGSGGGGSDVQLQESGGGLVQAGGSLRLSCAASGRTISRYAVGWFRRPPAKEREFIGINWSGGSTTYADSAEGRFIISRDNAKNTVYLQMNSLKPEDTAVYYCAVPSVLVQGGISNPSQYDYWGQGTQVTVS", "chain 2": "GPPCPPCPAPEFLGGPSVFLFPPKPKDTLMISRTPEVTCVVVDVSQEDPEVQFNWYVDGVEVHNAKTKPREEQFNSTYRVVSVLTVLHQDWLNGKEYKCKVSNKGLPSSIEKTISKAKGQPREPQVCTLPPSQEEMTKNQVSLSCAVKGFYPSDIAVEWESNGQPENNYKTTPPVLDSDGSFFLVSRLTVDKSRWQEGNVFSCSVMHEALHNHYTQKSLSLSLGKGGGGSGGGGSGGGGSEVQLLESGGGLVQPGGSLRLSCAASGFTFGNYDMAWVRQAPGKRPEWVSSIDTGGDITHYADSVKGRFTISRDNAKNTLYLQMNSLRPEDTAVYWCATDEEYALGPNEFDYYGQGTLVTVSS"}, "B2": {"name": "NIgG4E3A1(RS) (Fc fusion)", "chain 1": "DVQLQESGGGLVQAGGSLRLACAASGRTLSSYVVSWFRQAPGKERKFVAAITWSGLSTTYLDSVQGRFTISRDNTKDTVYLQMNSLKPQDTAIYYCAAGPNIPSILRTRESEYAYWGQGTQVTVSRSGPPCPPCPAPEFLGGPSVFLFPPKPKDTLMISRTPEVTCVVVDVSQEDPEVQFNWYVDGVEVHNAKTKPREEQFNSTYRVVSVLTVLHQDWLNGKEYKCKVSNKGLPSSIEKTISKAKGQPREPQVYTLPPCQEEMTKNQVSLWCLVKGFYPSDIAVEWESNGQPENNYKTTPPVLDSDGSFFLYSRLTVDKSRWQEGNVFSCSVMHEALHNHYTQKSLSLSLGK", "chain 2": "EVQLLESGGGLVQPGGSLRLSCAASGFTFGNYDMAWVRQAPGKRPEWVSSIDTGGDITHYADSVKGRFTISRDNAKNTLYLQMNSLRPEDTAVYWCATDEEYALGPNEFDYYGQGTLVTVSSRSGPPCPPCPAPEFLGGPSVFLFPPKPKDTLMISRTPEVTCVVVDVSQEDPEVQFNWYVDGVEVHNAKTKPREEQFNSTYRVVSVLTVLHQDWLNGKEYKCKVSNKGLPSSIEKTISKAKGQPREPQVCTLPPSQEEMTKNQVSLSCAVKGFYPSDIAVEWESNGQPENNYKTTPPVLDSDGSFFLVSRLTVDKSRWQEGNVFSCSVMHEALHNHYTQKSLSLSLGK"}, "B3": {"name": "NIgG4E3A1(G4S)1 (Fc fusion)", "chain 1": "DVQLQESGGGLVQAGGSLRLACAASGRTLSSYVVSWFRQAPGKERKFVAAITWSGLSTTYLDSVQGRFTISRDNTKDTVYLQMNSLKPQDTAIYYCAAGPNIPSILRTRESEYAYWGQGTQVTVSGGGGSGPPCPPCPAPEFLGGPSVFLFPPKPKDTLMISRTPEVTCVVVDVSQEDPEVQFNWYVDGVEVHNAKTKPREEQFNSTYRVVSVLTVLHQDWLNGKEYKCKVSNKGLPSSIEKTISKAKGQPREPQVYTLPPCQEEMTKNQVSLWCLVKGFYPSDIAVEWESNGQPENNYKTTPPVLDSDGSFFLYSRLTVDKSRWQEGNVFSCSVMHEALHNHYTQKSLSLSLGK", "chain 2": "EVQLLESGGGLVQPGGSLRLSCAASGFTFGNYDMAWVRQAPGKRPEWVSSIDTGGDITHYADSVKGRFTISRDNAKNTLYLQMNSLRPEDTAVYWCATDEEYALGPNEFDYYGQGTLVTVSSGGGGSGPPCPPCPAPEFLGGPSVFLFPPKPKDTLMISRTPEVTCVVVDVSQEDPEVQFNWYVDGVEVHNAKTKPREEQFNSTYRVVSVLTVLHQDWLNGKEYKCKVSNKGLPSSIEKTISKAKGQPREPQVCTLPPSQEEMTKNQVSLSCAVKGFYPSDIAVEWESNGQPENNYKTTPPVLDSDGSFFLVSRLTVDKSRWQEGNVFSCSVMHEALHNHYTQKSLSLSLGK"}, "B4": {"name": "NIgG4E3A1(G4S)2 (Fc fusion)", "chain 1": "DVQLQESGGGLVQAGGSLRLACAASGRTLSSYVVSWFRQAPGKERKFVAAITWSGLSTTYLDSVQGRFTISRDNTKDTVYLQMNSLKPQDTAIYYCAAGPNIPSILRTRESEYAYWGQGTQVTVSGGGGSGGGGSGPPCPPCPAPEFLGGPSVFLFPPKPKDTLMISRTPEVTCVVVDVSQEDPEVQFNWYVDGVEVHNAKTKPREEQFNSTYRVVSVLTVLHQDWLNGKEYKCKVSNKGLPSSIEKTISKAKGQPREPQVYTLPPCQEEMTKNQVSLWCLVKGFYPSDIAVEWESNGQPENNYKTTPPVLDSDGSFFLYSRLTVDKSRWQEGNVFSCSVMHEALHNHYTQKSLSLSLGK", "chain 2": "EVQLLESGGGLVQPGGSLRLSCAASGFTFGNYDMAWVRQAPGKRPEWVSSIDTGGDITHYADSVKGRFTISRDNAKNTLYLQMNSLRPEDTAVYWCATDEEYALGPNEFDYYGQGTLVTVSSGGGGSGGGGSGPPCPPCPAPEFLGGPSVFLFPPKPKDTLMISRTPEVTCVVVDVSQEDPEVQFNWYVDGVEVHNAKTKPREEQFNSTYRVVSVLTVLHQDWLNGKEYKCKVSNKGLPSSIEKTISKAKGQPREPQVCTLPPSQEEMTKNQVSLSCAVKGFYPSDIAVEWESNGQPENNYKTTPPVLDSDGSFFLVSRLTVDKSRWQEGNVFSCSVMHEALHNHYTQKSLSLSLGK"}, "B5": {"name": "NIgG4E3A1(G4S)3 (Fc fusion)", "chain 1": "DVQLQESGGGLVQAGGSLRLACAASGRTLSSYVVSWFRQAPGKERKFVAAITWSGLSTTYLDSVQGRFTISRDNTKDTVYLQMNSLKPQDTAIYYCAAGPNIPSILRTRESEYAYWGQGTQVTVSGGGGSGGGGSGGGGSGPPCPPCPAPEFLGGPSVFLFPPKPKDTLMISRTPEVTCVVVDVSQEDPEVQFNWYVDGVEVHNAKTKPREEQFNSTYRVVSVLTVLHQDWLNGKEYKCKVSNKGLPSSIEKTISKAKGQPREPQVYTLPPCQEEMTKNQVSLWCLVKGFYPSDIAVEWESNGQPENNYKTTPPVLDSDGSFFLYSRLTVDKSRWQEGNVFSCSVMHEALHNHYTQKSLSLSLGK", "chain 2": "EVQLLESGGGLVQPGGSLRLSCAASGFTFGNYDMAWVRQAPGKRPEWVSSIDTGGDITHYADSVKGRFTISRDNAKNTLYLQMNSLRPEDTAVYWCATDEEYALGPNEFDYYGQGTLVTVSSGGGGSGGGGSGGGGSGPPCPPCPAPEFLGGPSVFLFPPKPKDTLMISRTPEVTCVVVDVSQEDPEVQFNWYVDGVEVHNAKTKPREEQFNSTYRVVSVLTVLHQDWLNGKEYKCKVSNKGLPSSIEKTISKAKGQPREPQVCTLPPSQEEMTKNQVSLSCAVKGFYPSDIAVEWESNGQPENNYKTTPPVLDSDGSFFLVSRLTVDKSRWQEGNVFSCSVMHEALHNHYTQKSLSLSLGK"}, "B6": {"name": "CIgG4E3A1(RS) (Fc fusion)", "chain 1": "GPPCPPCPAPEFLGGPSVFLFPPKPKDTLMISRTPEVTCVVVDVSQEDPEVQFNWYVDGVEVHNAKTKPREEQFNSTYRVVSVLTVLHQDWLNGKEYKCKVSNKGLPSSIEKTISKAKGQPREPQVYTLPPCQEEMTKNQVSLWCLVKGFYPSDIAVEWESNGQPENNYKTTPPVLDSDGSFFLYSRLTVDKSRWQEGNVFSCSVMHEALHNHYTQKSLSLSLGKRSDVQLQESGGGLVQAGGSLRLACAASGRTLSSYVVSWFRQAPGKERKFVAAITWSGLSTTYLDSVQGRFTISRDNTKDTVYLQMNSLKPQDTAIYYCAAGPNIPSILRTRESEYAYWGQGTQVTVS", "chain 2": "GPPCPPCPAPEFLGGPSVFLFPPKPKDTLMISRTPEVTCVVVDVSQEDPEVQFNWYVDGVEVHNAKTKPREEQFNSTYRVVSVLTVLHQDWLNGKEYKCKVSNKGLPSSIEKTISKAKGQPREPQVCTLPPSQEEMTKNQVSLSCAVKGFYPSDIAVEWESNGQPENNYKTTPPVLDSDGSFFLVSRLTVDKSRWQEGNVFSCSVMHEALHNHYTQKSLSLSLGKRSEVQLLESGGGLVQPGGSLRLSCAASGFTFGNYDMAWVRQAPGKRPEWVSSIDTGGDITHYADSVKGRFTISRDNAKNTLYLQMNSLRPEDTAVYWCATDEEYALGPNEFDYYGQGTLVTVSS"}, "B7": {"name": "CIgG4E3A1(G4S)1 (Fc fusion)", "chain 1": "GPPCPPCPAPEFLGGPSVFLFPPKPKDTLMISRTPEVTCVVVDVSQEDPEVQFNWYVDGVEVHNAKTKPREEQFNSTYRVVSVLTVLHQDWLNGKEYKCKVSNKGLPSSIEKTISKAKGQPREPQVYTLPPCQEEMTKNQVSLWCLVKGFYPSDIAVEWESNGQPENNYKTTPPVLDSDGSFFLYSRLTVDKSRWQEGNVFSCSVMHEALHNHYTQKSLSLSLGKGGGGSDVQLQESGGGLVQAGGSLRLACAASGRTLSSYVVSWFRQAPGKERKFVAAITWSGLSTTYLDSVQGRFTISRDNTKDTVYLQMNSLKPQDTAIYYCAAGPNIPSILRTRESEYAYWGQGTQVTVS", "chain 2": "GPPCPPCPAPEFLGGPSVFLFPPKPKDTLMISRTPEVTCVVVDVSQEDPEVQFNWYVDGVEVHNAKTKPREEQFNSTYRVVSVLTVLHQDWLNGKEYKCKVSNKGLPSSIEKTISKAKGQPREPQVCTLPPSQEEMTKNQVSLSCAVKGFYPSDIAVEWESNGQPENNYKTTPPVLDSDGSFFLVSRLTVDKSRWQEGNVFSCSVMHEALHNHYTQKSLSLSLGKGGGGSEVQLLESGGGLVQPGGSLRLSCAASGFTFGNYDMAWVRQAPGKRPEWVSSIDTGGDITHYADSVKGRFTISRDNAKNTLYLQMNSLRPEDTAVYWCATDEEYALGPNEFDYYGQGTLVTVSS"}, "B8": {"name": "CIgG4E3A1(G4S)2 (Fc fusion)", "chain 1": "GPPCPPCPAPEFLGGPSVFLFPPKPKDTLMISRTPEVTCVVVDVSQEDPEVQFNWYVDGVEVHNAKTKPREEQFNSTYRVVSVLTVLHQDWLNGKEYKCKVSNKGLPSSIEKTISKAKGQPREPQVYTLPPCQEEMTKNQVSLWCLVKGFYPSDIAVEWESNGQPENNYKTTPPVLDSDGSFFLYSRLTVDKSRWQEGNVFSCSVMHEALHNHYTQKSLSLSLGKGGGGSGGGGSDVQLQESGGGLVQAGGSLRLACAASGRTLSSYVVSWFRQAPGKERKFVAAITWSGLSTTYLDSVQGRFTISRDNTKDTVYLQMNSLKPQDTAIYYCAAGPNIPSILRTRESEYAYWGQGTQVTVS", "chain 2": "GPPCPPCPAPEFLGGPSVFLFPPKPKDTLMISRTPEVTCVVVDVSQEDPEVQFNWYVDGVEVHNAKTKPREEQFNSTYRVVSVLTVLHQDWLNGKEYKCKVSNKGLPSSIEKTISKAKGQPREPQVCTLPPSQEEMTKNQVSLSCAVKGFYPSDIAVEWESNGQPENNYKTTPPVLDSDGSFFLVSRLTVDKSRWQEGNVFSCSVMHEALHNHYTQKSLSLSLGKGGGGSGGGGSEVQLLESGGGLVQPGGSLRLSCAASGFTFGNYDMAWVRQAPGKRPEWVSSIDTGGDITHYADSVKGRFTISRDNAKNTLYLQMNSLRPEDTAVYWCATDEEYALGPNEFDYYGQGTLVTVSS"}},
  "data": [
    {"target": "mixture of three Der p 2 specific recombinant human IgE clones H10, H12, P4E (human) (UniProt P01854)", "sequence (P01854 other isoform, or with tags, fused parts or gaps)": "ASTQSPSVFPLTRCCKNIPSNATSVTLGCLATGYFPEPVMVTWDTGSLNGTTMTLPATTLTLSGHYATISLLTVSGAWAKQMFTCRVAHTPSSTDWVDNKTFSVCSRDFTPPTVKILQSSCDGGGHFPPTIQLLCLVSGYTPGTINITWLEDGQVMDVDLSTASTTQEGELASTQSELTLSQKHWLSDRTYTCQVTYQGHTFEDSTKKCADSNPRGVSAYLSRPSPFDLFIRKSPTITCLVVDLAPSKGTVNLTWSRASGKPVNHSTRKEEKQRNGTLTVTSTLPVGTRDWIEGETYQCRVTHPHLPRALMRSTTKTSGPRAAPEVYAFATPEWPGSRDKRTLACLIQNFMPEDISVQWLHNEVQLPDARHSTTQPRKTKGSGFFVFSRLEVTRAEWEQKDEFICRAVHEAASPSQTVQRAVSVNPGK", "experiment": "RBL-SX38 IgE displacement, FACS", "units": {"EC50": "nM", "Max effect/effect 1 µM": "%"}, "values": [
      {"binder": "B1", "EC50": 532, "Max effect/effect 1 µM": 45},
      {"binder": "B2", "EC50": 2.2, "Max effect/effect 1 µM": 100},
      {"binder": "B3", "EC50": 2, "Max effect/effect 1 µM": 99},
      {"binder": "B4", "EC50": 2.1, "Max effect/effect 1 µM": 99},
      {"binder": "B5", "EC50": 2.2, "Max effect/effect 1 µM": 97},
      {"binder": "B6", "Max effect/effect 1 µM": 21},
      {"binder": "B7", "EC50": 277, "Max effect/effect 1 µM": 76},
      {"binder": "B8", "EC50": 172, "Max effect/effect 1 µM": 94}
    ]}
  ]
}
